Experimental data from article doi:10.1101/2024.08.05.606604, “The molecular basis of Human FN3K mediated phosphorylation of glycated substrate” (bioRxiv, 2024).

Target: the molecule itself
Experiment: crystal structure; HsFN3KΔ crystals, hanging drop vapor diffusion at 20 °C (0.5 M ammonium sulfate, 0.1 M tri-sodium citrate, 1 M lithium sulfate); space group P212121, two molecules in the asymmetric unit; apo and soaked with nucleotides and DMF

B1: HsFN3KΔ (human fructosamine-3-kinase with an internal loop truncation: amino acid 117–138 replaced with a GSS linker) (enzyme)
chain: MEQLLRAELRTATLRAFGGPGAGCISEGRAYDTDAGPVFVKVNRRTQARQMFEGEVASLEALRSTGLVRVPRPMKVIDLPGGGAAFVMEHLKMKSLSSQASKLGEQMADLHLYNQKGSSYVDKFGFHTVTCCGFIPQVNEWQDDWPTFFARHRLQAQLDLIEKDYADREARELWSRLQVKIPDLFCGLEIVPALLHGDLWSGNVAEDDVGPIIYDPASFYGHSEFELAIALMFGGFPRSFFTAYHRKIPKAPGFDQRLLLYQLFNYLNHWNHFGREYRSPSLGTMRRLLK
notes: human fructosamine-3-kinase (FN3K), Gene ID 64122, residues before the truncated loop (up to residue 116); linker that replaces amino acids 117–138; human fructosamine-3-kinase (FN3K), Gene ID 64122, residues after the truncated loop (from residue 139); Construct used for all crystal structures; also called apo-HsFN3K; apo-HsFN3KΔ; source: E. coli Rosetta 2 (DE3), purified (Ni-NTA, SP-HP cation …)
stoichiometry N: 2
